No end group written: not given here.
Experiments:
[1] = target: T1, Dpy-30 (Homo sapiens, UniProt Q9C005); experiment: Ni-NTA pulldown of GST-tagged RSP3 peptides with His-tagged human Dpy-30 protein; type: binding; design: made in house; host or cells: E. coli BL21(DE3), co-expressed with the GST-RSP3 peptides; settings: full-length human His-Dpy-30 co-expressed with GST-RSP3 peptide
Excerpt: (§1) Based on the phenotypes of RSP3 transgenic strains (FIG. 4), an in vitro approach was taken to test that RSP3269-316 contains a Dpy-30 domain binding site. RIIa-binding AHs are 14-18-a.a. long. Some of AHs are clearly comprised of ΦΦXX repeats in which the first two residues are hydrophobic residues (Φ) positioned to interact with complementary residues at the binding grooves of the RIIa domain (Burns-Hamuro et al., 2003; Kinderman et al., 2006; Sarma et al., 2010), whereas for the other RIIa-binding AHs the repeats are not as evident (Gold et al., 2006; Gaillard et al., 2001). Typical ΦΦXX repeats were noted within the Dpy-30 binding fragment in BIG1 at the trans-Golgi network but were not tested yet (Xia et al., 2010). For RSP3269-316, typical and degenerate ΦΦXX repeats are present throughout this region, thus the precise Dpy-30 binding site was determined objectively by Ni-NTA pulldown. As a control, the His-tagged RIIa domain from RSP7 was co-expressed with the GST-tagged RSP396-180 that harbors AHR at a.a.#161-178 (Gaillard et al., 2001; FIG. 3) and both polypeptides were co-purified by Ni-NTA (FIG. 7A). Various Dpy-30 domain containing RSP2 and RSP23 polypeptides were tested but were not compatible for this assay due to poor expression or precipitation propensity. Therefore we used the His-tagged human Dpy-30 protein for Ni-NTA pulldown instead. As expected, both GST-RSP3245-316 and GST-RSP3269-316 were co-purified with His-Dpy-30 by Ni-NTA (FIGS. 7B and 7C). In contrast, the GST control was not co-purified (FIG. 7D).
The experiments were further conducted on smaller segments within a.a.#269-316. GST-RSP3280-316 and GST-RSP3280-308, but not GST-RSP3280-306, were also pulled down by His-Dpy-30 (FIG. 7E, left panel). […] To ensure that the co-purification occurs through the Dpy-30 domain rather than its flanking sequence, the same experiment was conducted with the Dpy-30 domain only (Dpy-3045-99, Wang et al., 2009). The results from the experiments using Dpy-30 domain alone or full-length Dpy-30 protein were similar (FIG. 7E, right panel). Based on the similar dimensions of the RIIa and Dpy-30 domains (FIG. 1), we tested if the Dpy-30 binding peptide is centered on the 18-a.a. helix at the a.a.#291-308 by mutating V300 in the middle of the region into P, a strategy used to study AHR (Gaillard et al., 2001; Carr et al., 1992). […] RSP3291-308.
For Ni-NTA (Qiagen) affinity co-purification, GST-tagged RSP3 constructs and His-tagged HDpy-30 constructs were co-transformed into BL21(DE3) cells. The recombinant proteins were induced using 1 mM IPTG overnight at 16° C. Following induction, the cell pellet from a 5-ml culture was resuspended in 750 μl lysis buffer and sonicated using Branson digital Sonifier (Emerson Industrial Automation). The sonicated mixtures were centrifuged at 4° C., 12,000 rpm for 25 min. The supernatant was incubated with 100 μl Ni-NTA for 1 hour at room temperature. The matrix was subsequently washed thrice and elution was carried out as instructed by the manufacturer.

[2] = system: RIIa domain from RSP7; experiment: Ni-NTA pulldown with His-tagged RIIa domain from RSP7; type: binding, Chlamydomonas; settings: co-expressed in bacteria
Excerpt: as §1
Based on the structural similarity, we tested for the cross-recognition of His-Dpy-30 and AHR (GST-RSP3g); and RSP7's RIIa and AHD (GST-RSP3280-308) by the described Ni-NTA pulldown assay. […] Thus Dpy-30 that has a deep pocket from an additional α-helix recognizes both AHR and AHD, whereas RSP7's RIIa, as PKA's RII, only binds RSP3's AHR(Gaillard et al., 2001). […]

[3] = target: T1, Dpy-30; experiment: Ni-NTA pulldown of GST-hAsh2 peptides with His-Dpy-30; type: binding; design: Dpy-30 fragments, full length or a.a.#49-99, were amplified using purchased IMAGE cDNA clone #4081996 as a template; made in house; host or cells: E. coli BL21(DE3); key to co-purified with Dpy-30: “+” or “−” indicates if the peptides were or were not evidently co-purified with Dpy-30; “+” or “−” indicates if the peptides were or were not evidently co-purified with Dpy-30; settings: GST-fused hAsh2 peptides, Ni-NTA pulldown, Coomassie-stained SDS-PAGE
Excerpt: To test this, we performed pull down assays for His-Dpy-30 and GST-hAsh2593-623. The human Ash2 fragment contains a helix with two typical and three atypical ΦΦXX motifs. The hAsh2 DNA was fused downstream to GST DNA by PCR and the product was cloned into an expression vector. Three clones—#9 and #14 with the expected in-frame fusion and #6 with an out-of-frame fusion—were expressed in bacteria. Their extract was mixed with equal volume of bacterial extract with His-Dpy-30; and the mixture was subjected to Ni-NTA purification. […] Thus hAsh2593-623 interacts with Dpy-30 specifically.
Table 3 illustrates the protein sequences of hAsh2's C-terminal region (hAsh2593-623) and its variants, where “+” or “−” indicates if the peptides were or were not evidently co-purified with Dpy-30. The shorter fusion protein GST-hAsh2593-617 that terminated right after the last possible ΦΦXX-like motif, VETE (SEQ ID NO:35), in the helix was also co-purified with His-Dpy-30 (FIG. 11B, arrow and double arrowheads), no matter expressed separately or co-expressed. Both polypeptides were depleted in the flow through of Ni-NTA matrix (Post in FIG. 11B) and retained in the eluate.
(§2) All expression constructs were transformed or co-transformed into BL21(DE3) cells. The colonies were selected based on the antibiotic-resistant gene in each plasmid. The cultures were induced with 1 mM IPTG overnight at 18° C. The cell pellet from a 5-ml culture was resuspended in 750-μl lysis buffer supplemented with Complete Mini EDTA-free protease inhibitor cocktail tablets (Roche) and the suspension was sonicated on ice using Branson digital Sonifier until clarified (Emerson Industrial Automation). The sonicated mixtures were centrifuged at 4° C., 12,000 rpm for 25 min. The supernatant or combinations of supernatants as indicated were incubated with ˜100 μl Ni-NTA (Qiagen or Clontech) or Glutathione Sepharose 4B (Amersham Biosciences) for 1 hour at room temperature. The matrix was subsequently washed as instructed by manufacturers, unless indicated otherwise.
(§3) Bacterial extract, flow through and eluate in 1× Laemmli samples buffer were boiled for 5 min. In general, 10 μl samples were loaded in each lane in 4-20% precast acrylamide gels (Bio-Rad or DGEL Electrosystem, Canada) or 14% manually cast gels.

[4] = target: T2, Dpy-30 D/D (a.a. #49-99) (Homo sapiens, UniProt Q9C005); experiment: Ni-NTA pulldown of GST-hAsh2 peptides with His-Dpy-30 D/D; type: binding; settings: His-Dpy-30 D/D a.a. #49-99 co-expressed
T2 construct: His-Dpy-30 D/D (a.a. #49-99) was co-expressed with GST-hAsh2593-623; made in house; host or cells: E. coli BL21(DE3)
Excerpt: To differentiate if the interaction is via the Dpy-30 domain or the N-terminal fragment, His-Dpy-30 D/D (a.a. #49-99) was co-expressed with GST-hAsh2593-623 (FIG. 11C). To define the N-terminal end of Dpy-30 D/D binding site in hAsh2, W599 in the first potential ΦΦXX motif was mutated into P to disrupt helicity, an approach to abolish D/D-binding (Carr et al., 1982; Burns-Hamuro et al., 2003). […] Thus, the site that directly binds Dpy-30 D/D resides within hAsh2600-617 that is after W599 and contains four ΦΦXX-like motifs, even though an acidic residue occupies a supposedly hydrophobic position in the last motif, VETE (SEQ ID NO:35). The affinity may be further enhanced by adjacent sequences (Burns-Hamuro et al., 2003; Banky et al., 2003).
as §2, §3

T1 sequence (Q9C005 whole entry, the tested form may be a part): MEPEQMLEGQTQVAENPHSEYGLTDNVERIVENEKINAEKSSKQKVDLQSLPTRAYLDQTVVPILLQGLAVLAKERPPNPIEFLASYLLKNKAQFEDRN
T2 sequence (Q9C005 49-99): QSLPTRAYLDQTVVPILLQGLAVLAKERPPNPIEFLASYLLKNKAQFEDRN

Row | Substance | co-purification / pulldown with His-Dpy-30 [1] | co-purified with Dpy-30 [3] | co-purification with the Dpy-30 domain [4] | co-purification / pulldown with His-RIIa from RSP7 [2]
1 | GST-RSP3280-306: GST-tagged Chlamydomonas RSP3 fragment a.a. 280-306 (PWLKEQAIGYLARGVVARRVVDKLVED; also: GST tag) | not |  |  | 
2 | GST-RSP3280-308: GST-tagged RSP3 fragment a.a. 280-308, the Dpy-30-binding amphipathic helix AHD (PWLKEQAIGYLARGVVARRVVDKLVEDAA; also: GST-tagged (fusion)) | pulled down |  |  | did not significantly pull down
3 | GST-RSP3280-316: GST-tagged Chlamydomonas RSP3 fragment a.a. 280-316 (PWLKEQAIGYLARGVVARRVVDKLVEDAAAALAANRS; also: GST tag) | pulled down |  |  | 
4 | PMSDMGPGAVVEHTLADVLYHVETEVDGRRS [W500P] |  | − | still co-purified | 

Further lines, with some results ahead:

Row | co-purification / pulldown with His-Dpy-30 [1] | co-purified with Dpy-30 [3] | co-purification with the Dpy-30 domain [4] | Substance | co-purification / pulldown with His-RIIa from RSP7 [2]
5 |  | − | abolished the co-purification | PMSDMGWGAVVEHTLAD----------GRRS (PMSDMGWGAVVEHTLADGRRS; also: GST fusion) [Δ610-619, GST-hAsh2593-623 with a.a. #610-619 deleted] | 
6 |  | − | abolished the co-purification | PMSDMGWGAVVEHTLADVLYH------GRRS (PMSDMGWGAVVEHTLADVLYHGRRS; also: GST fusion) [Δ614-619, GST-hAsh2593-623 with VETEVD deleted] | 
